Reference: patent US20220401557A1 (Chugai, published 2022)
Numbering of substitutions follows the chain as printed.

B1: hCE115HA/GLSuPA20//GCH065 (bispecific antibody, human IgG1, kappa, N297A)
heavy 1: QVQLVESGGGVVQPGRSLRLSCAASGFTFSNAWMHWVRQAPGKGLEWVAQIKAKSNNYATYYAESVKGRFTISRDDSKNSLYLQMNSLKTEDTAVYYCRYVHYGAYYGVDAWGQGTTVTVSSASTKGPSVFPLAPSSKSTSGGTAALGCLVKDYFPEPVTVSWNSGALTSGVHTFPAVLQSSGLYSLSSVVTVPSSSLGTQTYICNVNHKPSNTKVDKKVEPKSCDKTHTCPPCPAPELRGGPKVFLFPPKPKDTLMISRTPEVTCVVVDVSHEDPEVKFNWYVDGVEVHNAKTKPREEQYASTYRVVSVLTVLHQDWLNGKEYKCKVSNKALPAPIEKTISKAKGQPREPQVYTLPPSRKEMTKNQVSLTCLVKGFYPSDIAVEWESNGQPENNYKTTPPYLDSDGSFFLYSKLTVDKSRWQQGNVFSCSVMHEALHNHYTQKSLSLSP
light 1: QDGNEEMGGITQTPYKVSISLSGRSDNHGGGSDIVMTQSPLSLPVTPGEPASISCRSSQSLVHSNRNTYLHWYQQKPGQAPRLLIYKVSNRFSGVPDRFSGSGSGTDFTLKISRVEAEDVGVYYCGQGTQVPYTFGQGTKLEIKRTVAAPSVFIFPPSDEQLKSGTASVVCLLNNFYPREAKVQWKVDNALQSGNSQESVTEQDSKDSTYSLSSTLTLSKADYEKHKVYACEVTHQGLSSPVTKSFNRGEC
heavy 2: QVQLVQSGAEVKKPGASVTVSCKASGYTFTDYEMHWIRQPPGEGLEWIGAIDGPTPDTAYSEKFKGRVTLTADKSTSTAYMELSSLTSEDTAVYYCTRFYSYTYWGQGTLVTVSSASTKGPSVFPLAPSSKSTSGGTAALGCLVKDYFPEPVTVSWNSGALTSGVHTFPAVLQSSGLYSLSSVVTVPSSSLGTQTYICNVNHKPSNTKVDKKVEPKSCDKTHTCPPCPAPELRGGPKVFLFPPKPKDTLMISRTPEVTCVVVDVSHEDPEVKFNWYVDGVEVHNAKTKPREEQYASTYRVVSVLTVLHQDWLNGKEYKCKVSNKALPAPIEKTISKAKGQPREPQVYTLPPSREEMTKNQVSLTCLVKGFYPSDIAVEWESNGQPENNYKTTPPYLDSDGSFFLYSKLTVDKSRWQQGNVFSCSVMHEALHNHYTQESLSLSP
light 2: DIVMTQSPLSLPVTPGEPASISCRSSQPLVHSNRNTYLHWYQQKPGQAPRLLIYKVSNRFSGVPDRFSGSGSGTDFTLKISRVEAEDVGVYYCGQGTQVPYTFGQGTKLEIKRTVAAPSVFIFPPSDEQLKSGTASVVCLLNNFYPREAKVQWKVDNALQSGNSQESVTEQDSKDSTYSLSSTLTLSKADYEKHKVYACEVTHQGLSSPVTKSFNRGEC
B2: hCE115HA/GLSuPA27//GCH065 (bispecific antibody, human IgG1, kappa, N297A)
heavy 1: B1 heavy 1
light 1: QDGNEEMGGITQTPYKVSISGTTVILTLSGRSDNHDIVMTQSPLSLPVTPGEPASISCRSSQSLVHSNRNTYLHWYQQKPGQAPRLLIYKVSNRFSGVPDRFSGSGSGTDFTLKISRVEAEDVGVYYCGQGTQVPYTFGQGTKLEIKRTVAAPSVFIFPPSDEQLKSGTASVVCLLNNFYPREAKVQWKVDNALQSGNSQESVTEQDSKDSTYSLSSTLTLSKADYEKHKVYACEVTHQGLSSPVTKSFNRGEC
heavy 2: B1 heavy 2
light 2: B1 light 2
B3: hCE115HAGS/GLS//GCH065 (bispecific antibody, human IgG1, kappa, N297A)
heavy 1: QDGNEGGGSGGGSQVQLVESGGGVVQPGRSLRLSCAASGFTFSNAWMHWVRQAPGKGLEWVAQIKAKSNNYATYYAESVKGRFTISRDDSKNSLYLQMNSLKTEDTAVYYCRYVHYGAYYGVDAWGQGTTVTVSSASTKGPSVFPLAPSSKSTSGGTAALGCLVKDYFPEPVTVSWNSGALTSGVHTFPAVLQSSGLYSLSSVVTVPSSSLGTQTYICNVNHKPSNTKVDKKVEPKSCDKTHTCPPCPAPELRGGPKVFLFPPKPKDTLMISRTPEVTCVVVDVSHEDPEVKFNWYVDGVEVHNAKTKPREEQYASTYRVVSVLTVLHQDWLNGKEYKCKVSNKALPAPIEKTISKAKGQPREPQVYTLPPSRKEMTKNQVSLTCLVKGFYPSDIAVEWESNGQPENNYKTTPPYLDSDGSFFLYSKLTVDKSRWQQGNVFSCSVMHEALHNHYTQKSLSLSP
light 1: B1 light 2 with P28S
heavy 2: B1 heavy 2
light 2: B1 light 2
B4: rCE115/GLS//GCH065 (bispecific antibody, human IgG1, kappa, N297A)
heavy 1: EVQLVETGGSLVQPGKSLKLTCATSGFTFSNAWMHWVRQSPEKQLEWVAQIKAKSNNYATYYAESVKGRFTISRDDSKSNIYLQMNSLKEEDTAVYYCRYVHYGAYYGVDAWGQGTSVTVSSASTKGPSVFPLAPSSKSTSGGTAALGCLVKDYFPEPVTVSWNSGALTSGVHTFPAVLQSSGLYSLSSVVTVPSSSLGTQTYICNVNHKPSNTKVDKKVEPKSCDKTHTCPPCPAPELRGGPKVFLFPPKPKDTLMISRTPEVTCVVVDVSHEDPEVKFNWYVDGVEVHNAKTKPREEQYASTYRVVSVLTVLHQDWLNGKEYKCKVSNKALPAPIEKTISKAKGQPREPQVYTLPPSRKEMTKNQVSLTCLVKGFYPSDIAVEWESNGQPENNYKTTPPYLDSDGSFFLYSKLTVDKSRWQQGNVFSCSVMHEALHNHYTQKSLSLSP
light 1: B1 light 2 with P28S
heavy 2: B1 heavy 2
light 2: B1 light 2
B5: rCE115/GLSGS//GCH065 (bispecific antibody, human IgG1, kappa, N297A)
heavy 1: B4 heavy 1
light 1: QDGNEGGGSGGGSGGGSDIVMTQSPLSLPVTPGEPASISCRSSQSLVHSNRNTYLHWYQQKPGQAPRLLIYKVSNRFSGVPDRFSGSGSGTDFTLKISRVEAEDVGVYYCGQGTQVPYTFGQGTKLEIKRTVAAPSVFIFPPSDEQLKSGTASVVCLLNNFYPREAKVQWKVDNALQSGNSQESVTEQDSKDSTYSLSSTLTLSKADYEKHKVYACEVTHQGLSSPVTKSFNRGEC
heavy 2: B1 heavy 2
light 2: B1 light 2
B6: rCE115/GLSuPA04//GCH065 (bispecific antibody, human IgG1, kappa, N297A)
heavy 1: B4 heavy 1
light 1: QDGNEEMGGGSGGGSGGGSLSGRSDNHGGGSDIVMTQSPLSLPVTPGEPASISCRSSQSLVHSNRNTYLHWYQQKPGQAPRLLIYKVSNRFSGVPDRFSGSGSGTDFTLKISRVEAEDVGVYYCGQGTQVPYTFGQGTKLEIKRTVAAPSVFIFPPSDEQLKSGTASVVCLLNNFYPREAKVQWKVDNALQSGNSQESVTEQDSKDSTYSLSSTLTLSKADYEKHKVYACEVTHQGLSSPVTKSFNRGEC
heavy 2: B1 heavy 2
light 2: B1 light 2
B7: rCE115/GLSuPA20//GCH065 (bispecific antibody, human IgG1, kappa, N297A)
heavy 1: B4 heavy 1
light 1: B1 light 1
heavy 2: B1 heavy 2
light 2: B1 light 2
B8: rCE115/GLSuPA27//GCH065 (bispecific antibody, human IgG1, kappa, N297A)
heavy 1: B4 heavy 1
light 1: B2 light 1
heavy 2: B1 heavy 2
light 2: B1 light 2
B9: rCE115/rCE115GS//GCH065 (bispecific antibody, human IgG1, kappa, N297A)
heavy 1: B4 heavy 1
light 1: QDGNEGGGSGGGSGGGSDVVMTQTPVSMSVSLGGQVSISCRSSQSLVHNNGNTYVSWYIQKPSQSPQLLIYKVSNRFSGISDRFSGSGSGTDFTLKISRVEPDDLGVYYCGQGTQDPYTFGAGTKLELKRTVAAPSVFIFPPSDEQLKSGTASVVCLLNNFYPREAKVQWKVDNALQSGNSQESVTEQDSKDSTYSLSSTLTLSKADYEKHKVYACEVTHQGLSSPVTKSFNRGEC
heavy 2: B1 heavy 2
light 2: B1 light 2
B10: rCE115/rCE115//GCH065 (bispecific antibody, human IgG1, kappa, N297A)
heavy 1: B4 heavy 1
light 1: DVVMTQTPVSMSVSLGGQVSISCRSSQSLVHNNGNTYVSWYIQKPSQSPQLLIYKVSNRFSGISDRFSGSGSGTDFTLKISRVEPDDLGVYYCGQGTQDPYTFGAGTKLELKRTVAAPSVFIFPPSDEQLKSGTASVVCLLNNFYPREAKVQWKVDNALQSGNSQESVTEQDSKDSTYSLSSTLTLSKADYEKHKVYACEVTHQGLSSPVTKSFNRGEC
heavy 2: B1 heavy 2
light 2: B1 light 2
B11: rCE115/rCE115uPA04//GCH065 (bispecific antibody, human IgG1, kappa, N297A)
heavy 1: B4 heavy 1
light 1: QDGNEEMGGGSGGGSGGGSLSGRSDNHGGGSDVVMTQTPVSMSVSLGGQVSISCRSSQSLVHNNGNTYVSWYIQKPSQSPQLLIYKVSNRFSGISDRFSGSGSGTDFTLKISRVEPDDLGVYYCGQGTQDPYTFGAGTKLELKRTVAAPSVFIFPPSDEQLKSGTASVVCLLNNFYPREAKVQWKVDNALQSGNSQESVTEQDSKDSTYSLSSTLTLSKADYEKHKVYACEVTHQGLSSPVTKSFNRGEC
heavy 2: B1 heavy 2
light 2: B1 light 2

Target: CD3 on NFAT-RE-luc2-Jurkat cells (human, UniProt P07766 23-207)
Sequence (P07766 23-207): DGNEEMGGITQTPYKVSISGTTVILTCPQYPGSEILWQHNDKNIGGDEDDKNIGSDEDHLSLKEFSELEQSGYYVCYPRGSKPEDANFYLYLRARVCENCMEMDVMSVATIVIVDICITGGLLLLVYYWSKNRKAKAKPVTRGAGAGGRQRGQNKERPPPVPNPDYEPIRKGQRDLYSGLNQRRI
Experiment: cell-based or functional assay

Binder | increase rate due to the protease treatment (luciferase, uPA-treated / untreated), antibody 0.1 nM [ratio] | increase rate due to the protease treatment (luciferase, uPA-treated / untreated), antibody 1 nM [ratio]
B1 | 1.6 | 3
B2 | 1 | 2.3
B3 | 1 | 1
B4 | 0.7 | 0.9
B5 | 1 | 0.7
B6 | 6.4 | 3.1
B7 | 2.8 | 1.6
B8 | 1 | 1.5
B9 | 0.9 | 0.6
B10 | 0.7 | 0.9
B11 | 2.7 | 3.8
